Substitutions are numbered along the chain they refer to.
B1: HEL23 (antibody, V domains shown)
VH: EVQLQQSGAELMKPGASVKISCKATGYTFSNYWIGWVKQRPGHGLEWIGEILPGSGSTNYNEKFKGKATFTADTSSNTAYMQLSSLTSEDSAVYYCARDSSGGFAYWGQGTLVTVSA
VL: DIVLTQSPAIMSASLGERVTMTCTASSNVSSSYLHWYQQKPGSSPKLWIYSTSNLASGVPARFSGSGSGTSYSLTISSMEAEDAATYYCHQYHRSPPTFGAGTKLEIK
B2: HEL23 variant 1 (antibody, V domains shown)
VH: B1 VH with Q5R, S91G, A105V, Q109R
VL: B1 VL
B3: HEL23 variant 4 (antibody, V domains shown)
VH: B1 VH with L4V, M12K, G54S, G56S, T111S
VL: B1 VL
B4: HEL23 variant 5 (antibody, V domains shown)
VH: B1 VH with G54S, T78I
VL: B1 VL
B5: HEL23 variant 3 (antibody, V domains shown)
VH: B1 VH with C22S, S84N
VL: B1 VL

Key:
hen egg lysozyme [1] = target: T1, hen egg lysozyme (Gallus gallus (hen egg white), UniProt P00698); assay: flow cytometry on cells
hen egg lysozyme [2] = target: T1, hen egg lysozyme; assay: BLI
hen egg lysozyme [3] = target: T1, hen egg lysozyme; assay: ELISA

T1 sequence (P00698 19-147): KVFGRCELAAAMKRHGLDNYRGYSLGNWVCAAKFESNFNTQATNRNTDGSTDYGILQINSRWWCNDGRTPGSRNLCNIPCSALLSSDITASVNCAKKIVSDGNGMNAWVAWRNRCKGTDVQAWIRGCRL

Binder	binding result (hen egg lysozyme [3])	further results
B1		binding result (hen egg lysozyme [1]): binds
B2		binding result (hen egg lysozyme [2]): binds
B3	binds	
B4	binds	
B5	binds	
